Assay results published in the supplement of paper PMC9112550, “Optimization of the antimicrobial peptide Bac7 by deep mutational scanning” (BMC Biology, 2022).

The sequences below were run on Escherichia coli TOP10 (assay: shrunken log2 fold change of peptide-encoding DNA abundance (4.5 h post-induction vs induction); higher = less antimicrobial activity (less host growth inhibition)). Conditions: time post-induction: 4.5 h; library: site-saturation at positions 5, 18, 19, 20.
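Note: peptides expressed intracellularly from a pBAD plasmid library in pooled LB shake-flask culture, induced with 0.3% L-arabinose, DNA abundance read by NGS, three biological replicates, DESeq2 with apeglm shrinkage.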

Sequence	shrunken log2 fold change
RRIRFRPPRLPRPRPRPCPNPRP	0.044
RRIRVRPPRLPRPRPRPIMRPRP	0.0562
RRIRNRPPRLPRPRPRPLIDPRP	-0.0832
RRIRSRPPRLPRPRPRPTNNPRP	-0.455
RRIRSRPPRLPRPRPRPRGQPRP	0.197
RRIRYRPPRLPRPRPRPQNYPRP	-0.81
RRIRSRPPRLPRPRPRPAYQPRP	-0.151
RRIRTRPPRLPRPRPRPSASPRP	-0.0732
RRIRYRPPRLPRPRPRPRYCPRP	-0.495
RRIRTRPPRLPRPRPRPVIIPRP	-0.213
RRIRERPPRLPRPRPRPKQYPRP	-0.292
RRIRDRPPRLPRPRPRPVEDPRP	0.429
RRIRIRPPRLPRPRPRPQDLPRP	-0.527
RRIRMRPPRLPRPRPRPFEKPRP	0.00408
RRIRRRPPRLPRPRPRPEMYPRP	0.0119
RRIRFRPPRLPRPRPRPPPFPRP	0.608
RRIRLRPPRLPRPRPRPVCWPRP	0.462
RRIRSRPPRLPRPRPRPECYPRP	0.133
RRIRYRPPRLPRPRPRPQLGPRP	-0.238
RRIRQRPPRLPRPRPRPFIMPRP	-1.46
RRIRWRPPRLPRPRPRPWNAPRP	-0.176
RRIRNRPPRLPRPRPRPNWAPRP	0.0482
RRIRARPPRLPRPRPRPPNCPRP	0.354
RRIRMRPPRLPRPRPRPYFEPRP	-0.318
RRIRLRPPRLPRPRPRPDTFPRP	0.0621

Sequence	shrunken log2 fold change
RRIRLRPPRLPRPRPRPFNLPRP	-0.596
RRIRARPPRLPRPRPRPEQVPRP	0.453
RRIRQRPPRLPRPRPRPWYLPRP	-0.176
RRIRRRPPRLPRPRPRPVWLPRP	0.175
RRIRPRPPRLPRPRPRPQMMPRP	-0.41
RRIRMRPPRLPRPRPRPPCSPRP	0.489
RRIRKRPPRLPRPRPRPKESPRP	-0.0162
RRIRLRPPRLPRPRPRPCSPPRP	-0.0527
RRIRHRPPRLPRPRPRPKTCPRP	-0.0999
RRIRTRPPRLPRPRPRPLNIPRP	-0.36
RRIRVRPPRLPRPRPRPVWIPRP	-0.206
RRIRSRPPRLPRPRPRPTSSPRP	-0.296
RRIRPRPPRLPRPRPRPAMWPRP	0.251
RRIRVRPPRLPRPRPRPIHQPRP	-0.166
RRIRERPPRLPRPRPRPTQWPRP	0.00138
RRIRCRPPRLPRPRPRPTPVPRP	0.714
RRIRNRPPRLPRPRPRPMHWPRP	0.0477
RRIRMRPPRLPRPRPRPAEIPRP	0.11
RRIRMRPPRLPRPRPRPTTEPRP	0.897
RRIRQRPPRLPRPRPRPILAPRP	0.465
RRIRGRPPRLPRPRPRPFYFPRP	0.219
RRIRARPPRLPRPRPRPDLFPRP	1.09
RRIRPRPPRLPRPRPRPFTDPRP	-0.247
RRIRIRPPRLPRPRPRPQCAPRP	-0.272
RRIRQRPPRLPRPRPRPKYQPRP	-0.369

Sequence	shrunken log2 fold change
RRIRLRPPRLPRPRPRPPDNPRP	0.0299
RRIRARPPRLPRPRPRPQGNPRP	-0.144
RRIRARPPRLPRPRPRPIEAPRP	0.213
RRIRNRPPRLPRPRPRPWYPPRP	-0.215
RRIRRRPPRLPRPRPRPDLCPRP	0.00591
RRIRMRPPRLPRPRPRPYGLPRP	-0.248
RRIRNRPPRLPRPRPRPERGPRP	0.296
RRIRSRPPRLPRPRPRPCRRPRP	-0.241
RRIRARPPRLPRPRPRPVYIPRP	-0.355
RRIRWRPPRLPRPRPRPHSRPRP	0.194
RRIRFRPPRLPRPRPRPGPQPRP	0.447
RRIRIRPPRLPRPRPRPQSQPRP	-0.513
RRIRFRPPRLPRPRPRPKWHPRP	-0.0786
RRIRFRPPRLPRPRPRPHVVPRP	-0.0249
RRIRPRPPRLPRPRPRPMETPRP	-0.00904
RRIRARPPRLPRPRPRPRAQPRP	0.465
RRIRYRPPRLPRPRPRPFFCPRP	-0.644
RRIRRRPPRLPRPRPRPYSIPRP	0.0088
RRIRKRPPRLPRPRPRPKQNPRP	0.706
RRIRMRPPRLPRPRPRPKTNPRP	0.864
RRIRMRPPRLPRPRPRPCHDPRP	-0.347
RRIRFRPPRLPRPRPRPGEFPRP	-0.239
RRIRYRPPRLPRPRPRPKNIPRP	-0.127
RRIRRRPPRLPRPRPRPMDQPRP	0.132
RRIRNRPPRLPRPRPRPGRIPRP	-0.0181
